Test results as given in patent US20220389097A1 (Genentech, published 2022).

B1: hPara.09.v2 hIgG1 N297G (antibody, V domains shown)
VH: EVQLVESGGGLVQPGGSLKLSCATSGFPFSNVWLHWVRQASGKGPEWVAHIKAKSDNYATYYAESVKGRFTISRDDSKNTVYLQMNSLKTEDTAVYYCTDILEYWGQGTLVTVSS
VL: DVVMTQSPLSLPVTPGEPASISCRSSRSLLTSKGITSLYWYLQKPGQSPQLLIYRMSNLASGIPDRFSGSGSGTDFTLKISRVEAEDVGVYYCAQFLVYPYTFGQGTKVEIKR
notes: also called hPara.09.H5.hIgG1.N297G
B2: 3.10C2 D101E mutant IgG (antibody, name in Kabat numbering, V domains shown)
VH: EVQLVETGGSLVQPGKSLKLTCATSGFPFSNVWMHWVRQSPEKQLEWIAHIKAKSDNYATYYAESVKGRFTISRDDSKTSIYLQMNSLKEDDTAIYYCTGLEYWGQGVMVTVSS
VL: DTVLTQAPLSLSVTPGESASISCRSSKSLLGVRDITSLYWYLQKPGKSPQLLIYRMSNLASGVPDRFSGSGSETDFTLKISEVETEDVGVYYCAQFLRYPYTFGPGTKLELK
notes: IgG captured on anti-human Fab chip

What was measured:
human TREM2 on cells [1] = molecular target: T1, human TREM2 on cells (human, UniProt Q9NZC2 19-230); assay: cell-based or functional assay
T1 sequence: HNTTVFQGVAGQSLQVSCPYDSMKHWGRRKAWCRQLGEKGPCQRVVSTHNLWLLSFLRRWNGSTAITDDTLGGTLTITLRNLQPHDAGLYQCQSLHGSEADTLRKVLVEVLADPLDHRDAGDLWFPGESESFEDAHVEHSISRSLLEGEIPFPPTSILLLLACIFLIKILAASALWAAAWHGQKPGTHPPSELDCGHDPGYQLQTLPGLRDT

human TREM2 on cells [2] = molecular target: T1, human TREM2 on cells; assay: cell-based or functional assay; remark: listed apart in the source
[3] = molecular target: T2, soluble monomeric human TREM2 (human, UniProt Q9NZC2 19-174, limits assumed); assay: SPR (Biacore T200), 37 C; IgG on anti-CH1 chip, soluble monomeric TREM2
T2 construct: Not the same as shed sTREM2; also called soluble monomeric TREM2
T2 sequence: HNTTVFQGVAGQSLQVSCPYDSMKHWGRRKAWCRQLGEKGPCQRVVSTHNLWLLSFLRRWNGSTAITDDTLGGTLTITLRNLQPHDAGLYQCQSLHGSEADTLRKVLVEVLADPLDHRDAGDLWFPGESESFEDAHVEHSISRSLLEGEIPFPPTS

[4] = molecular target: T3, soluble human TREM2 (sTREM2) (human, UniProt Q9NZC2 19-157); assay: sandwich ELISA: test antibody coated as capture, sTREM2 from BMDM culture supernatant, biotinylated 3.17A9 as detection
T3 construct: also called soluble TREM2; TREM2 ectodomain
T3 sequence: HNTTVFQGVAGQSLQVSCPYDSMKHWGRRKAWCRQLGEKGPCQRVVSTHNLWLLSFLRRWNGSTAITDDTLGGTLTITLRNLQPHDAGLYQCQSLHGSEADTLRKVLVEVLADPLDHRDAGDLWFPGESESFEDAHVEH
Excerpt: For example, as shown in an Example 11 herein, the human TREM2 ELISA assay measured binding of antibodies to sTREM2 by coating onto plate wells the antibody to be tested as capture reagents and with biotinylated IgV-reactive monoclonal antibody 3.17A9 used as the detection reagent. Control antibody 1.16B8 was used as a positive control antibody to establish the standard for sTREM2 binding.
A human TREM2 ELISA assay was used to measure binding of more than forty antibodies to soluble TREM2 (sTREM2) as follows: test anti-hTREM2 antibodies were coated onto plate wells as capture reagents and a biotinylated IgV-reactive monoclonal antibody, 3.17A9, was used as the detection reagent. Antibody 1.16B8 was used as a control antibody to establish the standard for sTREM2 binding. Plates coated with test or control antibody were incubated with diluted culture supernatant from bone marrow-derived macrophage (BMDM) cultures from transgenic mice expressing hTREM2. sTREM2 is constitutively produced by the BMDM cultures expressing hTREM2 and shed into the culture supernatant. Measurements were recorded at 450 nm for detection and 570 nm for background. The 3.17A9/1.16B8 antibody pair was selected over reagents provided in the R&D Systems kit as the commercial reagents were not compatible with sTREM2 detection of some of the antibodies tested. […]

[5] = molecular target: T2, soluble monomeric human TREM2; assay: SPR (Biacore 8K); mutant IgG on anti-human Fab chip, soluble monomeric TREM2
Excerpt: The resulting library consists of individual IgG clones, each with one mutation per molecule in the heavy chain variable regions. Clones were screened for off-rate (dissociation rate) by SPR in a Biacore™ 8K instrument using anti-human Fab chips to capture mutant IgGs and soluble monomeric TREM2 as ligand.

Binder	EC50, average X04 plaque intensity, human iPSC-derived microglia plaque assay (FIG. 24C) (human TREM2 on cells [1])	EC50, survival of iPSC-derived microglia (FIG. 23E) (human TREM2 on cells [1])	EC50, total Abeta plaque intensity, human iPSC-derived microglia plaque assay (FIG. 24B) (human TREM2 on cells [1])	phospho-SYK/total SYK relative to anti-gD control, iPSC-derived microglia, 1 hour (human TREM2 on cells [1])	phospho-SYK/total SYK relative to anti-gD control, iPSC-derived microglia, 4 hours (human TREM2 on cells [1])	EC50, Jurkat NFAT luciferase reporter cells (human TREM2 on cells [2])	IC50, TREM2 shedding inhibition in Jurkat-NFAT reporter cells (sTREM2 ELISA) (human TREM2 on cells [2])	Kd [3]	koff [3]	kon [3]	binding result [4]	binding result [5]
B1	320 nM	0.065 nM	330 nM	2 fold	> 10 fold	0.0245 µg/mL	0.162 µg/mL	0.016 nM	3.5e-05 s⁻¹	2.3e+06 M⁻¹ s⁻¹	no binding	
B2												no binding
